Measured values as given in US20040235117A1.
Values joined by “and” are separate entries in the source; they are usually repeats but may differ in a detail not shown here. Equal values may be shown once.

Columns and labels:
[1] = target: Flag-CD40L (AA 116 to 261) (human) (UniProt P29965); assay: competitive ELISA, CD40:Fc coated on the plate, sCD40L at constant concentration
[2] = target: Flag-CD40L (AA 116 to 261) (human) (UniProt P29965); assay: competitive ELISA, CD40:Fc coated on the plate, sCD40L at constant concentration, protein A 1 ug/ml
[3] = target: fusion protein (1), FasL trimer (flag sequence, linker, hFasL AA 139 to 281) (human) (UniProt P48023); assay: cell-based or functional assay
[4] = target: fusion protein (1), FasL trimer (flag sequence, linker, hFasL AA 139 to 281) (human) (UniProt P48023); assay: BIAcore, 7 ul of 2.5 ug/ml Flag-FasL over immobilised M2 antibody
[5] = target: fusion protein (5), TRAIL-ACRP30 (murine; human) (UniProt Q60994); assay: cell-based or functional assay
[6] = target: fusion protein (3), super FasL (human) (UniProt P48023); assay: cell-based or functional assay
[7] = target: TRAIL trimer (flag sequence, linker, hTRAIL AA 95 to 281) (human) (UniProt P50591); assay: BIAcore, 7 ul of 2.5 ug/ml Flag-TRAIL over immobilised M2 antibody
[8] = target: TNF receptor 2 (TNF-R2) on CT6 cells (mouse (on CT6 cells of mice)) (UniProt P25119); assay: cell-based or functional assay
[9] = target: fusion protein (1), FasL trimer (flag sequence, linker, hFasL AA 139 to 281) (human) (UniProt P48023); assay: BIAcore, Flag-FasL captured on an M2-modified CM5 chip; reference Fas:Fc
[10] = target: fusion protein (1), FasL trimer (flag sequence, linker, hFasL AA 139 to 281) (human) (UniProt P48023); assay: cell-based or functional assay; remark: listed apart in the source
[11] = target: fusion protein (1), FasL trimer (flag sequence, linker, hFasL AA 139 to 281) (human) (UniProt P48023); assay: BIAcore, Flag-FasL captured on an M2-modified CM5 chip, receptor fusion protein injected

UniProt P29965, sequence (P29965 other isoform, or with tags, fused parts or gaps limits assumed): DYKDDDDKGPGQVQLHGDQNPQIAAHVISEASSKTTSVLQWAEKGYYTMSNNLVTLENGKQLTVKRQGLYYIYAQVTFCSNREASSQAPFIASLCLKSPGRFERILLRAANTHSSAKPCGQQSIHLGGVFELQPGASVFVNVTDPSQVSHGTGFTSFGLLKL
UniProt P50591, sequence (P50591 other isoform, or with tags, fused parts or gaps limits assumed): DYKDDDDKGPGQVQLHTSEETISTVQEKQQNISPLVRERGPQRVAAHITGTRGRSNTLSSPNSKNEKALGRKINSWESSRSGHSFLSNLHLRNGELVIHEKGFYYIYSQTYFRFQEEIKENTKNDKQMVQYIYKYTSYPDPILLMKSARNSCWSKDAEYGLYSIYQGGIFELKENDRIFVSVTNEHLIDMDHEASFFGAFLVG
UniProt Q60994, sequence (Q60994 other isoform, or with tags, fused parts or gaps limits assumed): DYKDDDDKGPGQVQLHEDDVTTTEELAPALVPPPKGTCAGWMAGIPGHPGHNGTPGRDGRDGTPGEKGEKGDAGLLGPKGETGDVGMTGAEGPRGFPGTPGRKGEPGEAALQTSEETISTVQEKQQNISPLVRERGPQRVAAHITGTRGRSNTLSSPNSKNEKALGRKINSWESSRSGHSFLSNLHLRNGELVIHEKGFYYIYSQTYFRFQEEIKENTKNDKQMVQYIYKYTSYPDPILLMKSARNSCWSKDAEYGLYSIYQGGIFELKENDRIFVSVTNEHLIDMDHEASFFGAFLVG
UniProt P25119, sequence (P25119 23-474): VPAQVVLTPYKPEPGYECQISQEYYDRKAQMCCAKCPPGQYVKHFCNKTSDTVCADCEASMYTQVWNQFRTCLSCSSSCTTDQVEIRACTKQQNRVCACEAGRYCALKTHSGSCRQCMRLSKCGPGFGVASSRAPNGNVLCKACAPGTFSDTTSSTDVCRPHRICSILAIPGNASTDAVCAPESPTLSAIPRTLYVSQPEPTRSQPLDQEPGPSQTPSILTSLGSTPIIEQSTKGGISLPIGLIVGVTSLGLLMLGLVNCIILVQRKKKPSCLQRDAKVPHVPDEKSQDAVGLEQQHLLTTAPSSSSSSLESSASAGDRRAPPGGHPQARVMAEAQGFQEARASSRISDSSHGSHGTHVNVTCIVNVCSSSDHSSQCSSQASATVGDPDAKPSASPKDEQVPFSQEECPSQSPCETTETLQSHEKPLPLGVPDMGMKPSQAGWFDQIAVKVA

CD40:COMP (receptor)
fold increase in the affinity (against CD40:Fc) [1]: 30 fold

CD40:Fc/PA (from UniProt P25942 21-193) (Fc fusion)
fold increase in the affinity (against CD40:Fc) [2]: 8 fold

Fas:CMP (from UniProt P25445 1-170) (receptor)
inhibition of sFasL-mediated lysis, fold less effective than Fas:COMP [3]: 5 fold

anti-flag M2 monoclonal antibody
units bound (BIAcore response) [4]: 100 to 150 units | cytotoxic assay on Jurkat cells, fold increase of apoptosis-inducing activity [5]: > 10 fold | cytotoxic assay on A20 and Jurkat cells, fold increase of apoptotic activity [6]: 2 fold and > 1.5 fold | units bound (BIAcore response) [7]: 100 to 150 units

fusion protein (6), TNFα-ACRP30 (from UniProt Q60994 18-111; P06804 77-235) (ligand)
3[H]-thymidin incorporation into CT6 cells (cell proliferation) [8]: 5 ng/mL

B1: Fas:COMP (receptor, not shown: small tags and cut ends)
chain: QVTDINSKGLELRKTVTTVETQNLEGLHHDGQFCHKPCPPGERKARDCTVNGDEPDCVPCQEGKEYTDKAHFSSKCRRCRLCDEGHGLEVEINCTRTQNTKCRCKPNFFCNSTVCEHCDPCTKCEHGIIKECTLTSNTKCKEEGSPQPQPKPQPKPEPEGGCCQMLRELQETNAALQDVRELLRHRVKEITFLKNTVMECDACGMQPARTPGGGS
modifications: Assembles as a disulphide-linked pentamer through the COMP coiled coil (about 400 kDa by gel filtration). N-glycosylated.
fold lower dissociation constant than Fas:Fc [9]: 8 to 9 fold | inhibitory activity in cytotoxicity tests on cell lines, fold over Fas:Fc [10]: 10 to 20 fold | Kd [11]: 0.77 nM
